Test results reported in publication PMC9990171 (2023).

Key:
[1] = target: SARS-CoV-2 S receptor binding domain (RBD) (SARS-CoV-2 (Wuhan-Hu-1), UniProt P0DTC2 329-538); experiment: ELISA
[2] = target: SARS-CoV-2 S N-terminal domain (NTD) (SARS-CoV-2 (Wuhan-Hu-1), UniProt P0DTC2 14-294); experiment: ELISA

B1: 10H7 bivalent human heavy-chain-only antibody (HCAb) (antibody, V domains shown)
VH: EVQLVESGGGLIQPGGSLRLSCAASGFTVSNNYMAWVRQAPGKGLEWISVIYANGNTYYADSVKGRFTISRDNSKNVLFLQMSGLRAEDTAVYYCSSRYGSGSEELYDIWGQGTMVTVSS
For B1, which EC50 [1] is on record?
Its EC50 is 3.09 ng/mL.

B2: 7D1 bivalent human heavy-chain-only antibody (HCAb) (antibody, V domains shown)
VH: EVQLVETGGGLIQPGGSLRLSCAASGFQVSSSYMSWVRQAPGKGLEWVSVIYSGGGTYYADSVKGRFTISRDISKNTLYLQMNNLRAEDTAMYYCARGWTGVTATTGPWGQGTLVTVSS
Which EC50 [1] does the source give for B2 here?
The EC50 was 4.11 ng/mL.

B3: 10D12 bivalent human heavy-chain-only antibody (HCAb) (antibody, V domains shown)
VH: EVQLVETGGGLIQPGGSLRLSCAVSGFTVSLNYMSWVRQAPGKGLEWVSSIYSGGSTFYADSVKGRFTISRDNSKNTLYLQMNSLRAEDTAVYYCARGLGFGELPPFDFWGQGTLVTVSS
With B3 as the binder, how does the EC50 [1] read?
The EC50 was 3.22 ng/mL.

B4: 11C12 bivalent human heavy-chain-only antibody (HCAb) (antibody, V domains shown)
VH: EVQLVESGGGLVQPGGSLRLSCAASGFTFSSSWMYWVRHIPGKGLEWVSRTTSDVASTFYADSVKGRFTVSRDNAKNMLYLQMNSLRAEDTAVYYCTRDFHDLWSGYYNHWGQGTLVTVSS
With B4 as the binder, how does the EC50 [2] read?
Its EC50 is 181 ng/mL.

B5: 14D2 bivalent human heavy-chain-only antibody (HCAb) (antibody, V domains shown)
VH: EVQLVETGGGLIQPGGSLRLSCAASGFQVSNVYMSWVRQAPGKGQEWVSVLYSGGNTYYADSVKGRFTISRDNSKNMVYLQMNSLRVEDTAVYYCARGWEGVTGTTGPWGQGTLVTVSS
With B5 as the binder, how does the EC50 [1] read?
Its EC50 is 3.48 ng/mL.
